# Laboratory results taken from patent US20260022186A1 (UNIVERSITY OF CHICAGO, published 2026).
# B1: 1789 Fab (Fab, V domains shown)
# VH: EVQLVESGGGLVQPGGSLRLSCAASGFNVSYSSIHWVRQAPGKGLEWVASISSSSGYTYYADSVKGRFTISADTSKNTAYLQMNSLRAEDTAVYYCARNYWGWYPFYYFAFDYWGQGTLVTV
# VL: DIQMTQSPSSLSASVGDRVTITCRASQSVSSAVAWYQQKPGKAPKLLIYSASSLYSGVPSRFSGSRSGTDFTLTISSLQPEDFATYYCQQGWDYPITFGQGTKVEIKR
# B2: 1789 AM32 Fab (Fab, V domains shown)
# VH: EVQLVESGGGLVQPGGSLRLSCAASGFNVSYSSIHWVRQAPGKGLEWVARIRGNEGDTYYADSVKGRFTISADTSKNTAYLQMNSLRAEDTAVYYCARNYWGWYPFYYFAFDYWGQGTLVTV
# VL: DIQMTQSPSSLSASVGDRVTITCRASQSVSSAVAWYQQKPGKAPKLLIYSASSLYSGVPSRFSGSRSGTDFTLTISSLQPEDFATYYCQQGWDYPITFGQGTKVEIKR
# notes: also called Fab32
# B3: 1789 AM42 Fab (Fab, V domains shown)
# VH: EVQLVESGGGLVQPGGSLRLSCAASGFNVSYSSIHWVRQAPGKGLEWVAKIRGGHQDTHYADSVKGRFTISADTSKNTAYLQMNSLRAEDTAVYYCARNYWGWYPFYYFAFDYWGQGTLVTV
# VL: DIQMTQSPSSLSASVGDRVTITCRASQSVSSAVAWYQQKPGKAPKLLIYSASSLYSGVPSRFSGSRSGTDFTLTISSLQPEDFATYYCQQGWDYPITFGQGTKVEIKR
# B4: 1789 IgG (antibody, V domains shown)
# VH: EVQLVESGGGLVQPGGSLRLSCAASGFNVSYSSIHWVRQAPGKGLEWVASISSSSGYTYYADSVKGRFTISADTSKNTAYLQMNSLRAEDTAVYYCARNYWGWYPFYYFAFDYWGQGTLVTVSS
# VL: DIQMTQSPSSLSASVGDRVTITCRASQSVSSAVAWYQQKPGKAPKLLIYSASSLYSGVPSRFSGSRSGTDFTLTISSLQPEDFATYYCQQGWDYPITFGQGTKVEIKR
# B5: 1789 AM39 Fab (Fab, V domains shown)
# VH: EVQLVESGGGLVQPGGSLRLSCAASGFNVSYSSIHWVRQAPGKGLEWVASIRGAGSDTRYADSVKGRFTISADTSKNTAYLQMNSLRAEDTAVYYCARNYWGWYPFYYFAFDYWGQGTLVTV
# VL: DIQMTQSPSSLSASVGDRVTITCRASQSVSSAVAWYQQKPGKAPKLLIYSASSLYSGVPSRFSGSRSGTDFTLTISSLQPEDFATYYCQQGWDYPITFGQGTKVEIKR
# Columns and labels:
# [1] = target: T1, Full-length human NT5E (recombinant, secreted) (human); test: cell-based or functional assay
# T1 chain: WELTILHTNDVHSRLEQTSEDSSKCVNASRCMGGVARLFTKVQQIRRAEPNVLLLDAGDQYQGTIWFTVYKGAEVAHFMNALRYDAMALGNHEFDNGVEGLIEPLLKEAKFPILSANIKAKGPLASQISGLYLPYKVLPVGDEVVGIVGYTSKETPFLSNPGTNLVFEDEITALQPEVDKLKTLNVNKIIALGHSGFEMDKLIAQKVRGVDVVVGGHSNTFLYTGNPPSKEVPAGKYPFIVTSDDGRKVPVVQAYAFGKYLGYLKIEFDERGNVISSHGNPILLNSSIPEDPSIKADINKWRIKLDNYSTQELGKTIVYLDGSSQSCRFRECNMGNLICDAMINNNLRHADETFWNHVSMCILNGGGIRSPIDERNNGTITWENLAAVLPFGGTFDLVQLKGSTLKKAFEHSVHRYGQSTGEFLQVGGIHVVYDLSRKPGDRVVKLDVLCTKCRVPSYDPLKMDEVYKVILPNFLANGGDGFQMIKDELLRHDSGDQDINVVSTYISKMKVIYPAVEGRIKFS
# [2] = target: hNT5EDF (substrate binding knock-out variant of human NT5E) (human); test: cell-based or functional assay
# [3] = target: T2, hNT5EFF (F417A/F500A mutant of hNT5E) (human, UniProt P21589 27-549); test: cell-based or functional assay
# T2 sequence (looked up): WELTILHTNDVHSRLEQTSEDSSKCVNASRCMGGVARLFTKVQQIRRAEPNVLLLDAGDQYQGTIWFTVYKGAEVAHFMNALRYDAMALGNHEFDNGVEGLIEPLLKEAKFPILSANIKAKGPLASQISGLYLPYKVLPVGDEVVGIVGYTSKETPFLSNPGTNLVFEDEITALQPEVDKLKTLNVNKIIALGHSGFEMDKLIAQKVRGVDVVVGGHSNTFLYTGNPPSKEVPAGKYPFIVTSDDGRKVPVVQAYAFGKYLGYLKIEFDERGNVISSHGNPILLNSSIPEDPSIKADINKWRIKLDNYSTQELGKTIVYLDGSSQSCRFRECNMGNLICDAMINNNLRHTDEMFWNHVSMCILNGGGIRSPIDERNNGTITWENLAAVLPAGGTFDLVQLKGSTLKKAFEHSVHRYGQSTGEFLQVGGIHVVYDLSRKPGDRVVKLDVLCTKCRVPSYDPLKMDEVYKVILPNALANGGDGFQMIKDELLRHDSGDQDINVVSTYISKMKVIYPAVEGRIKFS
# [4] = target: T1, Full-length human NT5E (recombinant, …); test: SPR, NT5E on NTA chip via His-tag, no ATP
# [5] = target: T1, Full-length human NT5E (recombinant, …); test: SPR, NT5E on NTA chip via His-tag, 1 mM ATP
# [6] = target: T1, Full-length human NT5E (recombinant, …); test: protein ELISA, immobilised biotinylated NT5E, 1 mM ATP
# [7] = target: T3, Full-length murine NT5E (recombinant, secreted) (murine); test: SPR, NT5E on NTA chip via His-tag, 1 mM ATP; SPR, Fab, 1 mM ATP
# T3 chain: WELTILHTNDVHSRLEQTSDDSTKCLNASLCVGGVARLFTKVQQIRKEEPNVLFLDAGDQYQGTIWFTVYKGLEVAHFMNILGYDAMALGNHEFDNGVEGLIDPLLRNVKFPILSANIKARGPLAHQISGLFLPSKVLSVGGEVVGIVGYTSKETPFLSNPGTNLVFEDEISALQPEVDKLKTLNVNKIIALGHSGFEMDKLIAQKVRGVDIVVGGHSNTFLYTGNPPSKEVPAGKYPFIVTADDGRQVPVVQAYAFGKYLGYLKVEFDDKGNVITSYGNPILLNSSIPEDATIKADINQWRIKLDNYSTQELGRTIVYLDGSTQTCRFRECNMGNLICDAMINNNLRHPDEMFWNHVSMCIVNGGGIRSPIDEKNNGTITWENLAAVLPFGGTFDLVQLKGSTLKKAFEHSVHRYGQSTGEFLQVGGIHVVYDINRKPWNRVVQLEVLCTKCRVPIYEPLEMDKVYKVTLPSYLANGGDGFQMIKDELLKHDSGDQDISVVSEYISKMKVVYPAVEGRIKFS
# [8] = target: T3, Full-length murine NT5E (recombinant, …); test: protein ELISA, immobilised biotinylated NT5E, 1 mM ATP; protein ELISA, Fab, 1 mM ATP (EC50ATP)
# [9] = target: T1, Full-length human NT5E (recombinant, …); test: SPR, no ATP
# [10] = target: T3, Full-length murine NT5E (recombinant, …); test: SPR, no ATP
# [11] = target: T1, Full-length human NT5E (recombinant, …); test: SPR, 1 mM ATP
# [12] = target: T3, Full-length murine NT5E (recombinant, …); test: SPR, 1 mM ATP
# [13] = target: T3, Full-length murine NT5E (recombinant, …); test: protein ELISA, immobilised biotinylated NT5E, 1 mM ATP
# [14] = target: T1, Full-length human NT5E (recombinant, …); test: protein ELISA, immobilised biotinylated NT5E, no ATP (apo)
# [15] = target: T3, Full-length murine NT5E (recombinant, …); test: SPR, no ATP; footnote *: data generated poor fits
Binder,EC50 [6] [nM],Kd [9] [nM],koff [9] [s⁻¹],kon [9] [M⁻¹ s⁻¹],Kd [10] [nM],koff [10] [s⁻¹],kon [10] [M⁻¹ s⁻¹],Kd [11] [nM],koff [11] [s⁻¹],kon [11] [M⁻¹ s⁻¹],Kd [12] [nM],koff [12] [s⁻¹],kon [12] [M⁻¹ s⁻¹],also measured
B1,37,,,,,,,,,,,,,"TM of NT5E by differential scanning fluorimetry with 1789 Fab, 1 mM ATP [1]: 66 ° C.; TM of NT5E by differential scanning fluorimetry with 1789 Fab, No ATP [1]: 48 ° C.; TM of NT5E by differential scanning fluorimetry with 1789 Fab, 1 mM ATP [2]: 46 ° C.; TM of NT5E by differential scanning fluorimetry with 1789 Fab, No ATP [2]: 48 ° C.; TM of NT5E by differential scanning fluorimetry with 1789 Fab, 1 mM ATP [3]: 46 ° C.; TM of NT5E by differential scanning fluorimetry with 1789 Fab, No ATP [3]: 47 ° C.; Kd [4]: 760 nM; koff [4]: 0.044 s⁻¹; kon [4]: 57000 M⁻¹ s⁻¹; Kd [5]: 42 nM; koff [5]: 0.0073 s⁻¹; kon [5]: 170000 M⁻¹ s⁻¹; Kd [7]: 160 nM; koff [7]: 0.014 s⁻¹; kon [7]: 85000 M⁻¹ s⁻¹; EC50 [8]: 132 nM"
B2,,86,0.0091,110000,150,0.011,78000,15,0.0042,270000,15,0.0028,190000,
B3,,38,0.0067,180000,63,0.012,190000,11,0.0036,320000,12,0.0029,250000,
B4,0.86,,,,,,,,,,,,,EC50 [13]: 1.14 nM; EC50 [14]: 2.14 nM
B5,,35,0.0099,280000,,0.013,140000,7.9,0.0039,490000,12,0.0035,290000,Kd [15]: 99 nM
